From IntAct's records for PubMed 19513107

B1: Calcium-binding protein 39 (Homo sapiens), Q9Y376 (parent)
chain: MPFPFGKSHKSPADIVKNLKESMAVLEKQDISDKKAEKATEEVSKNLVAMKEILYGTNEKEPQTEAVAQLAQELYNSGLLSTLVADLQLIDFEGKKDVAQIFNNILRRQIGTRTPTVEYICTQQNILFMLLKGYESPEIALNCGIMLRECIRHEPLAKIILWSEQFYDFFRYVEMSTFDIASDAFATFKDLLTRHKLLSAEFLEQHYDRFFSEYEKLLHSENYVTKRQSLKLLGELLLDRHNFTIMTKYISKPENLKLMMNLLRDKSRNIQFEAFHVFKVFVANPNKTQPILDILLKNQAKLIEFLSKFQNDRTEDEQFNDEKTYLVKQIRDLKRPAQQEA
partner: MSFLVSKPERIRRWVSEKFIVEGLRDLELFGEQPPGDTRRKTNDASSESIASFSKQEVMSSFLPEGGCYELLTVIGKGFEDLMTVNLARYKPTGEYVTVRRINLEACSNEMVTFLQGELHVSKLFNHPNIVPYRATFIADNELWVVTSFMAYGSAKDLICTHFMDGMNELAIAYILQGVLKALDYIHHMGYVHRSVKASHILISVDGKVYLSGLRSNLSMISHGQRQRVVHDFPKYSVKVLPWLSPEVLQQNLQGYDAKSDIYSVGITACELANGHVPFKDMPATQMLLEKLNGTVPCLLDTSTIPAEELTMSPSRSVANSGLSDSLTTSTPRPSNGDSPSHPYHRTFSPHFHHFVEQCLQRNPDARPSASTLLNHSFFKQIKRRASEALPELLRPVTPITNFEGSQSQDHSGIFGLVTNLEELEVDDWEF
B2: STE20-related kinase adapter protein alpha (Homo sapiens), Q7RTN6-1 (parent)
chain: B1 partner
partner: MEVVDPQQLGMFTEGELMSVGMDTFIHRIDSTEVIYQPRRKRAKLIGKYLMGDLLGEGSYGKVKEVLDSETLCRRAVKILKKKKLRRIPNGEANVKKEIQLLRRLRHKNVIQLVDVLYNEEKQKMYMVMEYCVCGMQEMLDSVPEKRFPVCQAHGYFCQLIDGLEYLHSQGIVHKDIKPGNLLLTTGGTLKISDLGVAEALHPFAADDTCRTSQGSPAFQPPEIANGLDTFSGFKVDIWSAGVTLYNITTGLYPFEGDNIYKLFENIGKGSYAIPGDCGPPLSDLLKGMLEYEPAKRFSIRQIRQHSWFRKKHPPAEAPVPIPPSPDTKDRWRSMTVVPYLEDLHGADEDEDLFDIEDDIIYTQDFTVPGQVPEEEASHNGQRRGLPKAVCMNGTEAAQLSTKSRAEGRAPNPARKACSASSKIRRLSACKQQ
B3: STE20-related kinase adapter protein alpha (Homo sapiens), Q7RTN6-1 (parent)
chain: B1 partner
partner: B1 chain

Variants of: B1
Conditions: with STRADA

Variant	effect of a mutation on the interaction
F178A	disrupting interaction
S182A	disrupting interaction
Y223A	disrupting interaction
Q228A	disrupting interaction
M260A	disrupting interaction

Variants of: B2
Conditions: with stk11_human STK11, Q15831

Variant	effect of a mutation on the interaction
G76D;G78D;K197E	disrupting interaction
G76D;G78D;K197E;R215E	disrupting interaction
G76D;G78D;R215E	decreasing interaction

Variants of: B3
Conditions: with cab39_human CAB39, Q9Y376

Variant	effect of a mutation on the interaction
E105A	disrupting interaction
N109A	decreasing interaction
N126G	decreasing interaction
I138Q	disrupting interaction
Y185F	disrupting interaction
